Source: patent US20240000961A1, “ANTIBODY-BASED CONJUGATE FOR ENHANCING THERAPEUTIC EFFECT OF TARGETED THERAPEUTIC AGENT” (THE CATHOLIC UNIVERSITY OF KOREA INDUSTRY-ACADEMIC …, priority 2020, published 2024)

Experiments:
L929 normal cells = format: cell-based; details: for cytotoxicity: L929 normal cells, MTT, treated 4 hours then cultured 1 day; for toxicity: L929, at a concentration less than 10 μl/ml
Description: (§3) Thereafter, the cells were washed with a buffer solution, and further cultured for 1 day by adding a clean medium thereto.
(§4) The cultured cells were treated with MTT reagent and further cultured for 3 hours, then the culture solution and the MTT reagent were both removed, and dimethyl sulfoxide was added to dissolve formazan formed in the cells. Thereafter, absorbance was measured at 570 nm to compare the amounts of formazan formed and analyze the viability and cytotoxicity of cancer cells.

NIH3T3 normal cells = format: cell-based; details: for cytotoxicity: NIH3T3 normal cells, MTT, treated 4 hours then cultured 1 day; for toxicity: NIH3T3, at a concentration less than 10 μl/ml
Description: as §3, §4

[1] = test system: NIH-3T3 cells (do not express EGFR); details: NIH-3T3, 2 hours, flow cytometer; non-specific inflow
Description: Thereafter, the cells were washed with a buffer solution and the targeting ability to each type of cell was analyzed by a flow cytometer.

[2] = test system: A549 lung cancer cell line expressing PD-L1; format: cell-based
Description: (§1) Thereafter, the viability and cytotoxicity of cells were analyzed in the same manner as in Experimental Example 2-1.
(§2) Lung cancer and colorectal cancer cell lines expressing PD-L1 (A549 and HCT116, respectively) were cultured, and then treated with an avelumab-succinyl-Pluronic conjugate. Thereafter, the viability and cytotoxicity of cells were analyzed in the same manner as in Experimental Example 2-1.

[3] = test system: HCT116 (HCTE116) colorectal cancer cell line expressing PD-L1; format: cell-based
Description: as §1, §2

[4] = test system: SKOV3 cells, ovarian cell line expressing the EGFR
Description: as §3, §4

Row | Substance | cytotoxicity (L929 normal cells) | cytotoxicity (NIH3T3 normal cells) | toxicity (L929 normal cells) | toxicity (NIH3T3 normal cells) | other results
1 | ramucirumab-maleimide-polyethylene glycol 2K [RAM-Mal-PEG2K, reference compound] | non-toxic | non-toxic |  |  | 
2 | avelumab-maleimide-polyethylene glycol 6K [AVE-Mal-PEG6K, reference compound] |  |  | non-toxic | non-toxic | 
3 | maleimide-Pluronic F68-chlorin e6 [Mal-PF68-Ce6] |  |  |  |  | fluorescence signals compared to CTX-Mal-PF68-Ce6 or CTX-Mal-PEG2K-Ce6 treatment group [1]: increased
4 | avelumab-succinyl-Pluronic F127 [AVE-Suc-PF127] |  |  |  |  | cytotoxicity compared to avelumab antibody alone (AVE) or AVE-Suc-PEG2K/PEG5K [2]: greater increase in cytotoxicity; cytotoxicity compared to avelumab antibody alone (AVE) or AVE-Suc-PEG2K/PEG5K [3]: greater increase in cytotoxicity
5 | ramucirumab-maleimide-Pluronic F127 [RAM-Mal-PF127] | non-toxic | non-toxic |  |  | 
6 | avelumab-maleimide-Pluronic F127 [AVE-Mal-PF127] |  |  | non-toxic | non-toxic | 
7 | avelumab-maleimide-Pluronic F68 [AVE-Mal-PF68] |  |  | non-toxic | non-toxic | 
8 | ramucirumab-maleimide-Pluronic F68 [RAM-Mal-PF68] | non-toxic | non-toxic |  |  | 
9 | maleimide-polyethylene glycol 2K-chlorin e6 [Mal-PEG2K-Ce6, reference compound] |  |  |  |  | fluorescence signals compared to CTX-Mal-PF68-Ce6 or CTX-Mal-PEG2K-Ce6 treatment group [1]: increased
10 | ramucirumab-maleimide-polyethylene glycol 6K [RAM-Mal-PEG6K, reference compound] | non-toxic | non-toxic |  |  | 
11 | maleimide-Pluronic F68 [Mal-PF68] |  |  |  |  | cytotoxicity [4]: non-cytotoxic
12 | avelumab-maleimide-polyethylene glycol 2K [AVE-Mal-PEG2K, reference compound] |  |  | non-toxic | non-toxic | 
13 | avelumab-succinyl-Pluronic F68 [AVE-Suc-PF68] |  |  |  |  | cytotoxicity compared to avelumab antibody alone (AVE) or AVE-Suc-PEG2K/PEG5K [2]: greater increase in cytotoxicity; cytotoxicity compared to avelumab antibody alone (AVE) or AVE-Suc-PEG2K/PEG5K [3]: greater increase in cytotoxicity
